Experimental data published in publication PMC5016662.

Columns and labels:
[1] = target: human cathepsin K (human) (UniProt P43235)
[2] = target: human cathepsin L (human)
[3] = target: recombinant F. hepatica cathepsin L1 (Fasciola hepatica)
[4] = target: recombinant F. hepatica cathepsin L2 (Fasciola hepatica)
[5] = target: human cathepsin K (human) (UniProt P43235); assay: enzyme inhibition kinetics (fluorogenic substrate, Morrison tight-binding fit); inhibitor serially diluted (20 to 0.1 nM) against each cysteine protease; 50 mM citrate phosphate buffer pH 5.5, 2 mM DTT, 0.01% Brij L23; 37 °C; substrate at its Km; Ki worked out from the apparent Ki
[6] = target: human cathepsin L (human); assay: as above
[7] = target: recombinant F. hepatica cathepsin L1 (Fasciola hepatica); assay: as above
[8] = target: recombinant F. hepatica cathepsin L2 (Fasciola hepatica); assay: as above
bovine trypsin (bovine) [9] = target: bovine trypsin (bovine)
bovine trypsin (bovine) [10] = assay: enzyme inhibition kinetics (fluorogenic substrate, Morrison tight-binding fit); inhibitor serially diluted against trypsin (42 nM); 100 mM sodium phosphate buffer pH 7.6, 1 mM HCl, 20 mM Ca, 0.01% Brij L23; substrate Z-Leu-Arg-NHMec

Chain of human cathepsin K (human) (P43235 115-329): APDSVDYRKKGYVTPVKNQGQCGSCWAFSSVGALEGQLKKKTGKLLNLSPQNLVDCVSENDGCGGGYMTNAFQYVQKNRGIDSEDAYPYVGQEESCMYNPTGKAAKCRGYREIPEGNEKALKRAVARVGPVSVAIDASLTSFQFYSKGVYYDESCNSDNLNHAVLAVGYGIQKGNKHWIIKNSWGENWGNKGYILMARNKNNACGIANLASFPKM

Substance: recombinant Fasciola hepatica Kunitz-type protease inhibitor FhKT1 (natural protein)
- reduction of protease activity (fluorogenic substrate) by 300 nM rFhKT1 [1]: 99.5%
- reduction of protease activity (fluorogenic substrate) by 300 nM rFhKT1 [2]: 96.8%
- reduction of protease activity (fluorogenic substrate) by 300 nM rFhKT1 [3]: 98.9%
- reduction of protease activity (fluorogenic substrate) by 300 nM rFhKT1 [4]: 90.3%
- Ki [5]: 5 nM
- Ki [6]: 1.6 nM
- Ki [7]: 0.4 nM
- Ki [8]: 10 nM

Substance: recombinant FhKT1Leu15/Arg15 variant (natural protein)
- reduction of trypsin activity (fluorogenic substrate) by 300 nM rFhKT1Leu15/Arg15 (bovine trypsin (bovine) [9]): 88.9%
- Ki (bovine trypsin (bovine) [10]): 1.5 nM
- Ki [5]: 10 nM
- Ki [6]: 3 nM
- Ki [7]: 0.7 nM
- Ki [8]: 27 nM
